These results are taken from the nanobody polyreactivity screen of Harvey et al. (2022).

This series in a line: yeast display, Sf9 membrane polyspecificity reagent, FACS + sequencing; frameworks hold sequencing errors. The gist of the method: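 Sorting gates, low and high (top ~1%), were placed on anti-HA fluorescence to track expression and on streptavidin fluorescence to track reagent binding. A clone's polyreactivity label is taken from the gate it came out of. The reagent was 10% biotinylated, detergent-solubilized Sf9 membrane, applied for 1 hour at 4 °C to galactose-induced yeast display cells.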
For “EEELVDSGGGLVQAGGSLRLSCSAYGSTFRDYAMGWYRQAPGKERELVAAITSGGTTDYADSVKGRFPISRDNAKNTVYLQMNSLKPEDTAVYYCNKDGVVAGYQYDYWGQGTQVTVSS”, the “polyreactivity (PSR sort gate)” value was “low polyreactivity”.

Regarding “EEELVESGGGLVQAGCSLRLSCAATGSTIIWNAMGWYIQAPGKERELVAAITRSGGRTYYADSVKGRFTISRDNAKNTVYLLMNSLIPEDTAVYYCAAVIWGYYYGGKYVYYYPYGYWGQGTQVTVSS”, the “polyreactivity (PSR sort gate)” value is “high polyreactivity”.

As for “EEELVESGGGLVQAGGSLRLSCAASGRTFARNAMGWYRQAPGKERELVAGINFSGGNTYYADSVKGRFTISRDNAKNTVYLQMNSLKPEDTAVYYCAARRYWEGDYWGHGTQVTVSS”, the “polyreactivity (PSR sort gate)” value is “low polyreactivity”.

On to “EEELVESGGGLVQAGGSLRLSCAASGSIFVVNAMGWYRQAPGKERELVAAISRGGITNYADSVKGRFTISRDNAKNTVYLQMNSLKPEDTAVYYCNARGSRWVKPERDYWGQGTQVTVSS”, for which the “polyreactivity (PSR sort gate)” value is recorded as “low polyreactivity”.

In the case of “EVQHVESGGGLVQAGGSLRLSCAASGSTFYENAMGWYRQAPGKERELVAAINWSGGRTYYADSVKGRFTISRDNAKNTVNLQMNCLKQEYTAVYYCATREYRYAHSYYWGQGTQVTVSS”, the “polyreactivity (PSR sort gate)” value is reported as “high polyreactivity”.

“EVQLVESGGGLVQAGGSLRLSCAASGYSFSYNTMGWYRQAPGKERELVAAITRSGGSTYYADSVKGRFTISRDNAKNTVYLQMNSLKPEDTAVYYCNRVGWRGLKKANYWGQGTQVTVSS”: the “polyreactivity (PSR sort gate)” value is on record as “high polyreactivity”.

On to “EVQLVESGGGLVQPGGSLRLSCAASGYIYRRYRMGRYRQAPGKGREFVAAISGGSSTNYADSVKGRFTNSRDNSKNTVYLQMNSLRAEDTAVYYCAAYKIDSDPRVYWGQGTQVTVSS”, for which the “polyreactivity (PSR sort gate)” value is listed as “low polyreactivity”.

With “FVQAGGSLRLTCAASGSTFYGNAMGWYRQATGKERELVAGITGDGGSTYYADSVKGRFTISRDNAKNTVYLQMNSLKPEDTAVYYCAVDVIVLGQWPRQLDEFDYWGQGTQVTVSS”, the “polyreactivity (PSR sort gate)” value was “low polyreactivity”.

With “HDQHVESGGGLVQAGGSLRLSCAASGFTFYFYTMGWYRQAPGKERELVAAITGSGGSTYYADSVKARFTFSRDNAKNTVYLQMNSLKPEDTAVYYCAASYYPERVATWRGYYYWGQGTQVTVSS”, the “polyreactivity (PSR sort gate)” value is “high polyreactivity”.

As for “HVHLVESGGGLVQAGGSLPLSCAASGFIISHYTMGWYRQAPGKERELVAGISWSGGNTYYADFVKGRFTISRDHAKNTVYLQMNSLKPEDTAVYYCNADWIGVPLAYDYWGQGTQVTVSS”, the “polyreactivity (PSR sort gate)” value is recorded as “low polyreactivity”.

As to “HVQHVESAGGLVQAGGSLRLSCAASGSIFTYNALGGYIQAPGKERELVAAIDYSGGSTYYADSVKGRFTISRDNAKNTVYLQMNSLKPEDTAVYYCAAPWVPYPGYSLYGYDYWGQGTQVTVSS”, the “polyreactivity (PSR sort gate)” value was “low polyreactivity”.

For “HVQHVESGGGLVQAGGSLRLSCAASGRIFRPNAMGRYRQAPGKERELVAAITSNGGRTYYADSVKGRFTISRDNAKTTVYLQMTSQKPEDTAVYYCNAAPFRSGYGYWGQGTQVNVSS”, the “polyreactivity (PSR sort gate)” value is on record as “high polyreactivity”.

With “HVQLEESGGGLVQAGGSLRLSCAASGFTFNRYAMGWYRQAPGKERELVAAISSGGRTYYADSVKGRFTISRDNAKNTVYLQMNRLKPDDTAVYYCAADWSLYSHEFDYWGQGTQVTVSS”, the “polyreactivity (PSR sort gate)” value is recorded as “high polyreactivity”.

With “HVQLGESGGGLVQAGGSLRLSCAASGFIFDVYAMGWYRQAPGKERELVAAISSSGGRTYYADSVKGRFTISRDNAKNTVYLQMNSLKPEDTAVYYCAAKTHSRTKVYTADYWGQGTQVTVSS”, the “polyreactivity (PSR sort gate)” value is on record as “high polyreactivity”.

Consider “HVQLQESGGGLVQAGGSLRLSCAASGSIFQATYMGWYRQAPGKEREFVASITYGSITNYADSVKGRFTIGRDNAKDTLYLQMNSLKPEDTAVYYCAVDRHYIPAFHYWGQGTEVTVSS”, for which the “polyreactivity (PSR sort gate)” value was “low polyreactivity”.

“HVQLQESGRRPGAAGGSPRMSCAASGNIYWVAVMGRYRQAPGEERELVASIGFGCTTYYADSVKCRFTISRDNAKNTVYLQMISLKPEDTAVYYCAAPHYDWGELDYWGQGTQVPVSS”: the “polyreactivity (PSR sort gate)” value was “low polyreactivity”.

Take “HVQLQESGVGLVQAGGSLRLSCAASGTISQEYWMGWYRQAPGKEREFVAAIGLGSNTNYADSLKGRFTISRDNSTNTVFLQMNSLKPEDTAVYYCAVSVWQYSDHVYRGQGTQVTVSS”: the “polyreactivity (PSR sort gate)” value is listed as “low polyreactivity”.

Regarding “HVQLVESAGGLVPAGGSLRLSCAASGFIVWWYPMGWYRQAPGKERELVASITRGGRTNYADSVKGRFTISRDNAKNTVYLHMNSLKPEDTAVYYCAADVLLSRSNTPQRPSRLYYWGQVTQVTVSS”, the “polyreactivity (PSR sort gate)” value is “high polyreactivity”.

In the case of “HVQLVESGGGLVQAGASLRLSCAASGRIFGRNAMGWYRQAPGKERELVAAISGNGGSTYYADSVKGRFTISRDIAKNTVYLQMNSLKPEDTAGYYCATKYFSRMDYWGQGTQVTVSS”, the “polyreactivity (PSR sort gate)” value is “high polyreactivity”.

For the sequence “HVQLVESGGGLVQAGGSLRFSCAASVSTLRWNAMGWYRQAPAKEREMVAAITYSGGSTYYADSVKGLFTISRDNAKNTVYLQMNSLKPEDTAVYYCAADSYRYRPGYGPVLYDYWGQGTQVTVSS”, the “polyreactivity (PSR sort gate)” value was “high polyreactivity”.

Turning to “HVQLVESGGGLVQAGGSLRLSCAASGFIFKPYDMGLYRQAPGKERELVAAISWTGTSTYYADSVKGRFTISRDNAKNTVYLQINSLKPEDTAVFYCAKRWSAGAQHGFDYWGQGTQVTLSS”, the “polyreactivity (PSR sort gate)” value is “low polyreactivity”.

Turning to “HVQLVESGGGLVQAGGSLRLSCAASGFIFQSYAMGWYRQAPGKERELVASISASGGSTYYADSVKGRFTISRDNAKNTVYLQMNSLKPEDTAVYYCAAGYWSYWSLRMDYWGQGTQVTVSS”, the “polyreactivity (PSR sort gate)” value is recorded as “high polyreactivity”.

In the case of “HVQLVESGGGLVQAGGSLRLSCAASGFIIGYYAMGWYRQAPGKERELVASITWSTTSTYYADSVKGRFTISRDNAKNTVYLQMNSLKPEDTAVYYCAADLQSKLPSSIYIGDYWGQGTQVTVSS”, the “polyreactivity (PSR sort gate)” value is listed as “low polyreactivity”.

As to “HVQLVESGGGLVQAGGSLRLSCAASGFTFARYAMGWYRQAPGKERDLVATITRSGDSTNYADSVKGRFTISRDNAKNTVYLQMNSLKPEDTAVYYCNRRYPIWYRTMNYWGQGTQVTVSS”, the “polyreactivity (PSR sort gate)” value was “high polyreactivity”.

With “HVQLVESGGGLVQAGGSLRLSCAASGFTSYLYTMGWYRQAPGKERELVAAISNSGGNTYYADSVKGRFTISRDNAKNTVYLQMNSLKPEDTAVYYCAARLFAAKYRYGYWGQGTQVTVSS”, the “polyreactivity (PSR sort gate)” value is on record as “high polyreactivity”.

For the sequence “HVQLVESGGGLVQAGGSLRLSCAASGIIFITNAMGWYRQAPGKERELVAAISSTVSTYYADSVKGRFTISRDKAKNTVYLQMNRLKPADTAVYYCAAEWGLTQGESIYDYWGQGTQVTVSS”, the “polyreactivity (PSR sort gate)” value is “low polyreactivity”.

“HVQLVESGGGLVQAGGSLRLSCAASGIIFNLYAMGWYRQAPVKERELFAAISWSGGSTYYADSVKGRFTISRDNAKNTVYLKMNSLKPEDTAVYYCAAQRSVFKSFRTTYVRYDYWGQGTQVTVSS”: the “polyreactivity (PSR sort gate)” value was “high polyreactivity”.

Take “HVQLVESGGGLVQAGGSLRLSCAASGLIFKRYAIGGYRKAPGKERELVAAISYSGGSTYYEDSVKGRFTISRDYAKNTVYLQMNSLKPEDTAVYYCNAQSYRSDSAYHYKYDYWGQGTQVTVSS”: the “polyreactivity (PSR sort gate)” value is recorded as “high polyreactivity”.

On to “HVQLVESGGGLVQAGGSLRLSCAASGLTFQYNAMGWYRQAPGKERELVATISQSGGSTYYADSVKGRFTISRDNAKNTVYLQMNSLKPEDTAVYYCAAYRAWTWRIRYDYWGQGTQVTVSS”, for which the “polyreactivity (PSR sort gate)” value was “low polyreactivity”.

In the case of “HVQLVESGGGLVQAGGSLRLSCAASGRIFGAYAMGWYRQAPGKEREFVAAITSRGGNTYYADSVKGRFTISRDNAKNTVYLQMNSLIPEDTAVYYCAARHDKRRQYYVGQSAFDYWGQGTQVTVSS”, the “polyreactivity (PSR sort gate)” value is recorded as “low polyreactivity”.

On to “HVQLVESGGGLVQAGGSLRLSCAASGRIFPGYAMGWYRQAPGKERELVAGISNDASTNYADSVKGRFTISRDNAKNTVYLQMNSLKPEDTAVYYCAAEIYYLSVPRYDYWGQGTQVTVSS”, for which the “polyreactivity (PSR sort gate)” value is listed as “low polyreactivity”.

Take “HVQLVESGGGLVQAGGSLRLSCAASGRIFSVYTMGWYRQAPGKDRELVATISSGGRTNYADSVKGRFTISRDNAKNTVYLQMNSLKPEDTAVYYCAAVPYGFVGYDDYWGQGTQVTVSS”: the “polyreactivity (PSR sort gate)” value is given as “low polyreactivity”.

Consider “HVQLVESGGGLVQAGGSLRLSCAASGRIFYYNGMGWYRPAPGKERELVAAITPSDTSTYYAVSVKGRFTISRDNAKNTVYLQMNSLKPEDTAVYYCNADYDNHEMDYWGQGTQVTVSS”, for which the “polyreactivity (PSR sort gate)” value is listed as “low polyreactivity”.

Regarding “HVQLVESGGGLVQAGGSLRLSCAASGRILRRNAMGWYRQAPGKEREFVAAITWRGGSTYYADSVKGRFTISRDNAKNTVYLQMNSLKPEDTAVYYCAADTYSVEYVLPYYYWGQGTQVTVSS”, the “polyreactivity (PSR sort gate)” value is listed as “high polyreactivity”.

Consider “HVQLVESGGGLVQAGGSLRLSCAASGRNFIYNAMGWSSPAPGTDRELVAAINRSGVSTHYADSVKGRFTISRDNAKKTVYLQMNSLKPEDTAVEYCARTVYGARSYDYWGQGTQVTVSS”, for which the “polyreactivity (PSR sort gate)” value is on record as “low polyreactivity”.

As to “HVQLVESGGGLVQAGGSLRLSCAASGRTFVVYAMGWDRQAPGKERELVAAITSSGGSTYYADSVKGRFTISRDNAKNTVYLQMNSLKPEDTAVYYCNRVYVRAGVSVAYNYWGQGTQVTVSS”, the “polyreactivity (PSR sort gate)” value is reported as “high polyreactivity”.

In the case of “HVQLVESGGGLVQAGGSLRLSCAASGSIFIKYAMGWYRQAPGKERELVAAISRRGGSTYYADSVKGRFTISRDNAKNTVYLQMNSLKPEDTAVYYCAAVNIRFGYWGQGTQVTVSS”, the “polyreactivity (PSR sort gate)” value was “high polyreactivity”.

For “HVQLVESGGGLVQAGGSLRLSCAASGSTFYNNAMGWTRQAPGKERELVAAITSSVGSTQYADSVKGRFTISRDKAKNTVYLPMNSLKPADTAVYYCAATFGYGRYGYWGQGTQVTVSS”, the “polyreactivity (PSR sort gate)” value is “low polyreactivity”.

Consider “HVQLVESGGGLVQAGGSLRLSCAASGSTLYWNAIGWYRQAPGKEMELVASITSSGGSTYYADSVKGRFTISRDNAKNTVYLQMNSLKPEDTAVYYCATESWWRYSEYYYWGQGTQVTVSS”, for which the “polyreactivity (PSR sort gate)” value was “low polyreactivity”.

On to “HVQLVESGGGLVQAGGSLRLSCAASGTFTYYAMGWYRQAPGKERELVAAITWRGGNTYYADSVKGRFTISRDNAKNTVYLQMNSLKPEDTAVYYCATDYWYIRWGGYYWGQGTQVTVSS”, for which the “polyreactivity (PSR sort gate)” value was “low polyreactivity”.

As to “HVQLVESGGGLVQAGGSLRLSCAASGYILDRNAMGWYRQAPGKESELVAVISWGGTRTYYADSVKGRFTISRDNAKNTVYLQMNSLKPEVTAVYYCARYPYYYGYAGRYDYWGQGTQVTVSS”, the “polyreactivity (PSR sort gate)” value is recorded as “high polyreactivity”.
